B1: Connector enhancer of kinase suppressor of ras 2, residues 9 to 71; numbered along this chain, Q8WXI2 (parent)
chain: SKWSPSQVVDWMKGLDDCLQQYIKNFEREKISGDQLLRITHQELEDLGVSRIGHQELILEAVD
B2: SWI/SNF-related matrix-associated actin-dependent regulator of chromatin subfamily B member 1, residues 181 to 248; numbered along this chain, Q12824 (parent)
chain: SQPEVLVPIRLDMEIDGQKLRDAFTWNMNEKLMTPEMFSEILCDDLDLNPLTFVPAIASAIRQQIESY

Variants of: B1
Test: abundance fitness (aPCA) (normalised: wild type 0, dead -1); higher = more abundant; growth selection in yeast, the domain comes from the species named
Conditions: Homo sapiens

Abundance fitness, by site and new letter:
S1: E -0.283; G -0.134; K 0.015; I 0.038; C -0.07; V -0.015; N 0.063; T -0.198; A -0.2; D -0.028; L -0.154; F -0.13; P -0.653; W -0.22
K2: L -0.041; H 0.047; D -0.053; P -0.167; C -0.084; M -0.121; F -0.025; I -0.09; A -0.239; N -0.049; E -0.29; G -0.059

Variants of: B2
Test: as above
Conditions: Homo sapiens

Abundance fitness, by site and new letter:
A56: F -0.623; I -0.375; G -0.523; W -0.628; E -0.134; K -0.041; V -0.319; D -0.552; Q -0.095; Y -0.421; H -0.123; P -0.564; S -0.278; C -0.384; M -0.416; T -0.566; N -0.654
P50: H -0.039; C -0.751; N -0.567; A -0.292; I -1; Q -0.508; D -0.986; T -0.364; Y -0.714; F -0.285; L -0.933; R 0.021; G -0.77; V -0.772; K 0.138; S -0.389; M -1.03; E -0.818; W -0.845
D47: T -0.37; L -0.425; Y -0.401; M -0.265; W -0.507; V -0.542; P -0.799; K 0.093; N -0.107; C -0.305; S -0.101; G 0.053; H -0.018
R62: Q -0.192; F -0.69; Y -0.119; T -0.3; N -0.256; L -0.553; H -0.239; S -0.386; I -0.824; A -0.66; P -0.718; W -0.75; M -0.619; C -0.629; K -0.043
Q63: F -0.232; N -0.038; S 0.011; W -0.467; P -0.758; D -0.019; M -0.257; C -0.129; T -0.043; L -0.276; E -0.163; V -0.293; Y 0.105; A -0.057; K -0.067; R -0.115
T52: H -0.104; R -0.21; D -0.168; I -0.417; S -0.14; K 0.189; Q -0.215; F -0.412; V -0.005; L -0.163; G -0.634; C -0.31
I61: W -0.989; K -0.75; G -0.854; V -0.536; C -0.956; L -0.725; R -0.878; A -0.763; S -1.06; M -0.461; D -0.827; T -0.594
Y68: V -0.373; K -0.47; N -0.384; I -0.541; S -0.427; G -0.661; P -0.473; A -0.127; M -0.641; H -0.093; L -0.536; D -0.521; W 0.165; T -0.444; F -0.183; C -0.643; Q -0.185
E66: T -0.169; H -0.45; W -0.313; N -0.227; A 0.096; Y -0.09; S -0.06; D -0.073; C -0.385; I -0.276; G -0.316; L -0.229; P -0.919; M -0.215; K -0.106; Q -0.432; V -0.142
V54: G 0.144; S -0.324; F -0.739; R -0.22; A -0.119; P -0.593; L -0.684; I -0.241; M -0.335
S67: I -0.078; T -0.101; F -0.06; V -0.098; M -0.103; R 0.039; C 0.003; N 0.082; G -0.012; D -0.055; K -0.2; A 0.046; H -0.089; P -0.055; E -0.011; W -0.234; Y -0.179
A58: S -0.072
L48: R -0.989; G -0.66; S -0.659; P -0.873; E -0.678; I -0.147; F -0.656; Y -0.649; D -0.785; W -0.888; A -0.857; K -0.651; V -0.554; N -0.664; H -0.722; C -0.374
I57: L -0.76; V -0.177; Q -0.779; M -0.417; G -0.781; T -0.855; W -0.615; E -0.749; N -0.542; R -0.912; K -0.931; A -0.781; H -1.03; S -0.802; F -0.957; Y -0.713; P -1.04
Q64: L -0.52; C -0.863; S -0.563; M -0.904; F -0.584; I -0.898; E -0.338; R -0.709; P -0.878; K -0.97; Y -0.795; V -0.941; T -0.658; H -0.741; A -0.354; D -1.22; W -0.618
N49: K -0.824; M -0.846; R -0.789; E -0.292; I -0.932; D -0.057; P -0.097; L -0.924; S -0.498; H -0.355; F -0.923; C -0.356; V -0.814; W -0.783; Q -0.458; T -0.874; G -0.735; Y -0.666
L46: H 0.318; F -0.091; Y -0.038; K 0.211; M 0.05; N -0.271; P -1.08; A -0.125; Q -0.162; E -0.204; W 0.017; V -0.746; T -0.954; R 0.161; G -0.37; S -0.694; C -0.231
A60: C -0.068; Q 0.068; K -0.214; P -0.974; N -0.28; L -0.72; W -0.71; T -0.081; E 0.085; V -0.286; R -0.285; G -0.528; Y -0.637; F -0.725; H -0.311; S 0.076
I65: P -0.689; E -0.994; G -1.05; C 0.036; M -0.477; V -0.232; T -0.141; Q -0.852; L -0.069; W -0.817; R -0.543
D45: Q -0.284; G -0.185; H -0.143; R 0.193
L51: D 0.125; S 0.044; A 0.041; T -0.174; E 0.185; H 0.002; V 0.042
D44: A 0.271; V -0.008; N -0.403; S 0.043; E 0.309; Q -0.028; I -0.259; G -0.276; H 0.258; K 0.177; T -0.467; M -0.473; L -0.251
F53: L -0.813
C43: S -0.79; V -0.249; Y -0.662; T -0.971; W -0.497
P55: T 0.479

Reference: the Human Domainome abundance scans (Beltran et al. 2025)
